We go through one molecule from patent publication US20150284431A1 (H LEE MOFFITT CANCER CENTER AND RESEARCH INSTITUTE, published 2015).

Square brackets hold non-standard residues; d marks the D form. Primed or numbered codes have the meaning given here. Side chains are listed from the residue outwards. * marks the point of attachment. Butanoyl(4-Ph) = O=C(CCCc1ccccc1)*; IR800CW″ = IRDye800CW maleimide; Mpa = O=C(O)CCS

The test addresses MC5R expressed in the kidneys (of the xenograft-bearing mice). Kind of test: cell-based or functional assay.

Chain of MC5R expressed in the kidneys (of the xenograft-bearing mice) (P41149 whole entry): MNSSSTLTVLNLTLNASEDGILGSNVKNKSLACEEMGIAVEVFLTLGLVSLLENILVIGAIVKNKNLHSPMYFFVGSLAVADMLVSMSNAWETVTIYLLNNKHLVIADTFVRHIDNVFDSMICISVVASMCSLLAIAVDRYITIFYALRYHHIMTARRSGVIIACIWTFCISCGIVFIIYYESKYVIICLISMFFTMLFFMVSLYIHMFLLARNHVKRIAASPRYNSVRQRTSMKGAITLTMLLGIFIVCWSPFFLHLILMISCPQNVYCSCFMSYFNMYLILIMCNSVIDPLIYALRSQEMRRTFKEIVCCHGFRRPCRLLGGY

B1: 4-phenylbutyryl-His-DPhe-Arg-Trp-Gly-Lys(Mpr-IR800CW)-NH2 (peptide)
peptide: {Butanoyl(4-Ph)}-H[dF]RWGK([Mpa-IR800CW″])-NH2
Turning to B1, the “fold decrease in renal uptake of MC1RL-800 at 2 hr, with co-injection of 1 nmol/kg MC4R/5R compound (SEQ ID NO:10), compared to control animals” value worked out at 1.56 fold.
